# ± gives the uncertainty stated by the source.
# Assay: protein stability index of a GFP-peptide fusion (yeast GPS) (PSI 1-4); higher = more stable; sorted into four equal gates, so the index is relative within each strain
# How it was run: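 The protein stability index combines read frequencies across sorting gates, each weighted by its gate number and then summed. To obtain those frequencies, a pooled yeast library of GFP fusions to tiled 17-residue yeast protein peptides, on a plasmid also expressing Cherry, was grown to mid-log phase in leucine-free medium. The cells were sorted into four equal gates by GFP/Cherry ratio before plasmid amplification by PCR and Illumina sequencing.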
Sequence,protein stability index (doa10∆),protein stability index (pdr5∆),protein stability index (san1∆),protein stability index (ubr1∆)
HCIDYLRKNKLGYARFI [SMC4],1.19 ± 0.036,1.21 ± 0.039,1.14 ± 0.091,1.14 ± 0.04
SARSSVHESLVTQSNIL [SRB8],2.77 ± 0.078,3.04 ± 0.076,2.81 ± 0.061,2.83 ± 0.086
ILEDTATMSVFLQRIDF [RRI2],2.78 ± 0.059,2.53 ± 0.05,2.76 ± 0.056,2.59 ± 0.042
GPGFKFVDLNEKELQNE [SRB4],2.64 ± 0.17,–,–,2.85 ± 0.14
RRVNQAIALLTIGAREA [RPS5],3.21 ± 0.21,2.72 ± 0.21,2.6 ± 0.24,3.36 ± 0.22
ETNLQTFLPPLLLKLAS [ECM29],1.65 ± 0.038,1.85 ± 0.043,1.62 ± 0.063,2.11 ± 0.034
LDLAGPLLAQLFKTLFK [RPB2],2.63 ± 0.038,1.25 ± 0.037,1.25 ± 0.078,1.18 ± 0.031
AKLNYKNLNPASSSPSS [ECM29],3.25 ± 0.071,3.06 ± 0.08,2.79 ± 0.11,3.04 ± 0.051
PPPPPPPGYEIEELDNP [PRP8],2.87 ± 0.046,2.98 ± 0.04,3.04 ± 0.048,3.03 ± 0.033
VSSKPSKPESSVLQLIV [MED1],2.73 ± 0.13,3.28 ± 0.11,2.94 ± 0.073,3.27 ± 0.098
PNCPRPNMSICIFGDAF [RPL1A],1.75 ± 0.083,1.55 ± 0.06,1.55 ± 0.2,1.53 ± 0.04
KWEQTYKKPTGGIVTVR [FAS1],3.07 ± 0.064,2.04 ± 0.054,2.2 ± 0.1,2.37 ± 0.053
FLSQGLHVVITLLREVV [CSN12],1.49 ± 0.06,1.73 ± 0.059,1.91 ± 0.093,2.13 ± 0.057
FYMLNAGIRPKFILALN [RPN1],2.22 ± 0.16,1.81 ± 0.078,1.78 ± 0.085,1.37 ± 0.058
KIQETELKIRSKTENVR [RPT6],2.35 ± 0.11,2.61 ± 0.088,2.23 ± 0.16,2.57 ± 0.073
TSDPVMHKQLAYILAAQ [RPN1],1.68 ± 0.15,2.52 ± 0.17,–,2.1 ± 0.11
RYNAKAIGSGSEGAQAE [PUP2],3.24 ± 0.093,3.14 ± 0.093,3.36 ± 0.062,2.98 ± 0.075
VEYNLFTNRSTMMANFE [BRN1],2.11 ± 0.18,2.4 ± 0.18,2.37 ± 0.095,2.65 ± 0.053
PRDVIKGKDFEITAKEV [FAS1],3.27 ± 0.095,3.41 ± 0.12,3.24 ± 0.07,3.36 ± 0.083
IMGFISYHNGNLKGRPY [FAS2],3 ± 0.13,2.95 ± 0.11,3.28 ± 0.057,3.01 ± 0.12
YLLASLKDSKDFDESLK [RPN9],2.69 ± 0.083,2.82 ± 0.088,2.82 ± 0.099,2.52 ± 0.084
FKLSSESVIEQIVKYAR [RPS13],2.54 ± 0.1,2.97 ± 0.11,2.63 ± 0.097,2.72 ± 0.043
ENIQEGTSLTIQHIAAA [CDC53],2.52 ± 0.091,3.11 ± 0.086,2.42 ± 0.099,2.91 ± 0.077
LVDLKKELAELKVQKLS [RPL35A],1.2 ± 0.066,1.59 ± 0.097,1.46 ± 0.12,1.68 ± 0.085
CRKCYARLPPRATNCRK [RPL40A],3.09 ± 0.23,3.71 ± 0.28,3.13 ± 0.14,2.92 ± 0.13
RRVYNRVLETTLVEFET [BRN1],2.21 ± 0.068,2.86 ± 0.098,2.69 ± 0.17,1.7 ± 0.071

Sequence,protein stability index (doa10∆),protein stability index (pdr5∆),protein stability index (san1∆),protein stability index (ubr1∆)
DEVNDRSDISDSEGGLF [PCI8],3.33 ± 0.28,3.08 ± 0.16,3.46 ± 0.072,3.06 ± 0.12
SNDTTAFNDSCVNLSLF [SRB8],3.07 ± 0.065,2.92 ± 0.069,3.13 ± 0.06,2.34 ± 0.035
YCHEKELTIIKNPRVTK [CSN9],2.55 ± 0.098,2.29 ± 0.18,2.14 ± 0.2,2.13 ± 0.13
RCYQPFELFDNKTAHLS [SNU114],2.27 ± 0.1,2.71 ± 0.08,2.53 ± 0.061,2.24 ± 0.041
YLNDLMITKRILEVGAL [RPN12],1.29 ± 0.16,–,–,–
ISNINIPISSETTIDDL [SMC1],–,2.69 ± 0.17,–,1.85 ± 0.071
IYQVPEKDLEHWLQLAK [POP1],3.22 ± 0.12,3.13 ± 0.13,3.42 ± 0.091,3.1 ± 0.099
IPSPLSSTKPPGSVNSA [NUT1],2.76 ± 0.056,2.84 ± 0.058,2.86 ± 0.076,2.85 ± 0.044
VPCDRIEKSRLFSEKTI [SNF6],2.58 ± 0.11,2.78 ± 0.058,2.62 ± 0.096,2.2 ± 0.044
LYVVGLFDTYHASKAIG [RRP6],1.91 ± 0.045,2.38 ± 0.043,1.88 ± 0.069,2.49 ± 0.035
ALLIEVFTALLRLFINE [ITC1],2.11 ± 0.087,1.53 ± 0.076,1.42 ± 0.097,1.24 ± 0.051
LGKYEFSKILPAALDGL [ESC2],2.28 ± 0.055,2.67 ± 0.072,1.61 ± 0.13,2 ± 0.086
GVGKRKVWLDPNETSEI [RPL19A],3.13 ± 0.23,3.69 ± 0.24,–,3.04 ± 0.29
AALGEVASMELKPTNDM [SIR2],3.46 ± 0.13,3.33 ± 0.12,3.52 ± 0.067,3.17 ± 0.13
IEEKLSSFSKKTLTEEV [YIL149C/MLP2],2.92 ± 0.054,3.07 ± 0.052,3.03 ± 0.052,3 ± 0.048
MVNESDGVTHALYPQEA [RPB2],3.16 ± 0.087,3.26 ± 0.081,3.05 ± 0.067,3.35 ± 0.086
KAKRQINSGTNSANGSS [SSN3],2.52 ± 0.057,2.68 ± 0.058,2.92 ± 0.057,2.91 ± 0.046
VFGASDKQAEGTPLFTF [YOR098C/NUP1],2.83 ± 0.074,2.86 ± 0.087,3 ± 0.097,3.21 ± 0.081
SETDKRQFLHELRRPGV [RPO31],1.89 ± 0.056,1.73 ± 0.059,1.57 ± 0.16,1.57 ± 0.069
GKLVVSQEMVPRYFSEA [SIR3],3.31 ± 0.086,3.43 ± 0.17,3.38 ± 0.079,3.21 ± 0.12
KHFIQGGSFGNREEFIN [RPL7A],1.61 ± 0.21,1.86 ± 0.14,1.21 ± 0.23,1.56 ± 0.04
SGAITFVNETPRVIEPV [PRP8],–,1.96 ± 0.27,–,1.11 ± 0.045
LLCDKAQKNTQSYGGRP [PRE5],3.17 ± 0.14,3.27 ± 0.095,3.37 ± 0.092,3.26 ± 0.077
EQQPEQPQETEEHHEEE [RPT4],3.41 ± 0.084,3.28 ± 0.12,3.2 ± 0.12,3.44 ± 0.1
AKLHRISPKIWCAGAGT [PUP1],1.93 ± 0.049,1.87 ± 0.046,1.85 ± 0.056,1.88 ± 0.042
